Assay results taken from patent US20070190054A1.

What was measured:
[1] = molecular target: murine C3 or a fragment of C3, deposited on particles opsonized with mouse serum (mouse) (UniProt P01027); assay: cell-based or functional assay
[2] = molecular target: C3b (purified; species not stated in Examples 12, 13, 19, 20) (UniProt P01024); assay: ELISA; details: Fc fusion
[3] = molecular target: C3b dimers (C3b2) (human) (UniProt P01024); assay: SPR, CRIg-Fc captured on a CM5 chip via an antibody to the Fc tag, dimeric C3b injected, response at equilibrium
[4] = molecular target: murine C3 or a fragment of C3, deposited on particles opsonized with mouse serum (mouse) (UniProt P01027); assay: flow cytometry; details: Fc fusion
Target sequence in this assay (P01027 25-666, chain 1 of 2): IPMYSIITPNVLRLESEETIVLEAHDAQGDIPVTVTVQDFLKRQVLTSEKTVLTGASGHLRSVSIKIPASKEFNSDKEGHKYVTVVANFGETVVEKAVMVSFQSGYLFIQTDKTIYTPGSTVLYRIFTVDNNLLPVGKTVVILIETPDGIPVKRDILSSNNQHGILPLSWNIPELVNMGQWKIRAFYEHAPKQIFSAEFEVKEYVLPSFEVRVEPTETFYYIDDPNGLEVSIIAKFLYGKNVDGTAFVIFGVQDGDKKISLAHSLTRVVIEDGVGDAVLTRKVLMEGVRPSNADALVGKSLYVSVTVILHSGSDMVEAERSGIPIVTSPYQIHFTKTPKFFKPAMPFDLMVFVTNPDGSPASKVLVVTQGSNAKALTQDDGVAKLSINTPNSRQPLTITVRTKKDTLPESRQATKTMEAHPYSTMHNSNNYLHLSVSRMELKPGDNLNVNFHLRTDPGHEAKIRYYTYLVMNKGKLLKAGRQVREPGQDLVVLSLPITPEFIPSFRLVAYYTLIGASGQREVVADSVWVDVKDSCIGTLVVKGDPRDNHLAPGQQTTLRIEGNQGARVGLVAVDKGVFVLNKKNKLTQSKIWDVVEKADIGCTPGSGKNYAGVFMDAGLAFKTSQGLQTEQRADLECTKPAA
Target sequence in this assay (P01027 749-1663, chain 2 of 2): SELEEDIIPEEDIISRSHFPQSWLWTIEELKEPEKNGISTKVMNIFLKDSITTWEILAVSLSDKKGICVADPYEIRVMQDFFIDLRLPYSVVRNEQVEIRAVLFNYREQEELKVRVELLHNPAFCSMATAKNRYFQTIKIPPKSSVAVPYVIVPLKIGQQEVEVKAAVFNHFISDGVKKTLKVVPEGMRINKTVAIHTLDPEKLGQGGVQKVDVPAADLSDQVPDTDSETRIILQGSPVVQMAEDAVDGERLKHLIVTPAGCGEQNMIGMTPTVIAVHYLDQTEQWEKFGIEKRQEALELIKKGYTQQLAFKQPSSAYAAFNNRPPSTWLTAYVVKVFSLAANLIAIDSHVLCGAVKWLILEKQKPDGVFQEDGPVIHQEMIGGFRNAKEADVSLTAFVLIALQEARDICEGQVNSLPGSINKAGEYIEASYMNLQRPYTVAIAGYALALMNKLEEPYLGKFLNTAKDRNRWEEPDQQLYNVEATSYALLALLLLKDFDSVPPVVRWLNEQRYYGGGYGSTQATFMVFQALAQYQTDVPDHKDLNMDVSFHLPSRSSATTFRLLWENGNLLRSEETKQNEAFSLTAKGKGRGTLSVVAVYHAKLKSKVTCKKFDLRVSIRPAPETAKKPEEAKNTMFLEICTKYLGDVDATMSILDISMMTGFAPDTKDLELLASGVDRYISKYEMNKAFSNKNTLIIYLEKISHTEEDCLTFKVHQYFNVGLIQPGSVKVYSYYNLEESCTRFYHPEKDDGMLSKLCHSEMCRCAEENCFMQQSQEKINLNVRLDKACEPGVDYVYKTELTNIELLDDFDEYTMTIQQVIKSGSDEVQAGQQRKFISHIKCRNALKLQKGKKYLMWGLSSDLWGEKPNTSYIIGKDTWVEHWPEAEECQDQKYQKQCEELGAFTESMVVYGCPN

Row | Kd [2] | Kd [3] | Substance | further results
1 | – | – | complement receptor 3 (CR3) on mouse Kupffer cells (from UniProt P05555 17-1153; P11835 24-771) | further reduction in rosette formation with the addition of CR3 blocking antibody [1]: < 20%
2 | 75 nM | – | human CRIg-Fc fusion protein (long or short form not specified) (from UniProt Q9Y279 20-283) | –
3 | – | – | murine CRIg expressed on the cell surface (receptor) | reduction in E-IgM rosetting of CRIg ko KCs compared to CRIg wt KCs [1]: 60%
4 | – | 44 nM | huCRIg(S)-Fc fusion protein (from UniProt Q9Y279 20-283) | –
5 | 50 nM | – | murine CRIg-Fc fusion protein | Kd [4]: 17 nM
6 | – | 131 nM | huCRIg(L)-Fc fusion protein (from UniProt Q9Y279 20-283) | –
